Literature values as cited in PMC3485249.

Molecular target: Pygopus PHD PHD (Homo sapiens) (UniProt Q9Y3Y4)

Kd: 1000 nM
Substance: Pygopus PHD PHD (from UniProt Q9Y3Y4)
